# Test results from paper PMC10499821.
# Columns and labels:
# [1] = molecular target: FITC-PRDM14_(197–213) (human); test: fluorescence polarisation
# Nsp3 Ubl1 (SARS-CoV-2) = Nsp3 Ubl1 (SARS-CoV-2) (UniProt P0DTD1); test: fluorescence polarisation
Substance,fold reduction of affinity against wild-type Nsp3 SUD-M [1],fold lower affinity than NCOA2 (1074–1089) (Nsp3 Ubl1 (SARS-CoV-2))
"Nsp3 SUD-M A1397E, V1453K, S1478D (from UniProt P0DTD1 819-2763) (domain or fragment)",100 fold,
Y to V mutant of the NCOA2_(1074–1089) peptide (from UniProt Q15596 1074-1089),,20 fold
